Paper PMC8927147, “Global profiling of regulatory elements in the histone benzoylation pathway” (Nature Communications, 2022)
Each block holds one binder with its values, some of them ahead of it. Ends that are not written are not given here. * marks the point of attachment. Bz = O=C(c1ccccc1)*

Assays:
Assay in all cases: crystal structure; protein (15 mg/ml) mixed with peptide at 1:5 molar ratio; sitting-drop vapor diffusion at 25 °C
Conditions in all cases: both partners purified
Sas5_(YEATS) = molecular target: T1, Sas5_(YEATS) (S. cerevisiae, UniProt Q99314 2-139)
T1 construct: also called YEATS domain of Sas5; source: E. coli Rosetta, purified (Ni-NTA, on-bead ULP1 digestion, SEC); not shown: 6*His-Sumo, N-terminal, cleaved
T1 sequence (looked up): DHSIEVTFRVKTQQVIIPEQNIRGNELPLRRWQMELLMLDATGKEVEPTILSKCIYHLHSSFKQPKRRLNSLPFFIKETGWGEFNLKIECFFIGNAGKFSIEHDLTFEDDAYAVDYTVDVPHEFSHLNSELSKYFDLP

Sth1BD = molecular target: T2, Sth1BD (S. cerevisiae, UniProt P32597 1248-1359)
T2 construct: also called Bromodomain from Sth1; source: E. coli Rosetta, purified (Ni-NTA, on-bead ULP1 digestion, SEC); not shown: 6*His-Sumo, N-terminal, cleaved
T2 sequence (looked up): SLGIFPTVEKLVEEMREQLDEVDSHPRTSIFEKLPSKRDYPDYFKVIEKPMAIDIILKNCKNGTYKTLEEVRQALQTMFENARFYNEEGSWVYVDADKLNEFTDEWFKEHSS

Hst2_(8-294) = molecular target: T3, Hst2_(8-294) (S. cerevisiae, UniProt P53686 8-294)
T3 construct: Construct of the crystal structures; source: E. coli Rosetta, purified (Ni-NTA, on-bead ULP1 digestion, SEC); not shown: 6*His-Sumo, N-terminal, cleaved

Taf14_(YEATS) = molecular target: T4, Taf14_(YEATS) (S. cerevisiae, UniProt P35189 2-137)
T4 construct: Taf14, S. cerevisiae, YEATS domain, residues 2-137; also called Taf14_(2-137); YEATS domain of Taf14; source: E. coli Rosetta, purified (Ni-NTA, on-bead ULP1 digestion, SEC); not shown: 6*His-Sumo, N-terminal, cleaved
T4 sequence (looked up): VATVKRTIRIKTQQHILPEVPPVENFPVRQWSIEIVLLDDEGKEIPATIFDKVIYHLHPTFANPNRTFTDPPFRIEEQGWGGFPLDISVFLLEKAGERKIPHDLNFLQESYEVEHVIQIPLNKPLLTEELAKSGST

T3 sequence (P53686 8-294): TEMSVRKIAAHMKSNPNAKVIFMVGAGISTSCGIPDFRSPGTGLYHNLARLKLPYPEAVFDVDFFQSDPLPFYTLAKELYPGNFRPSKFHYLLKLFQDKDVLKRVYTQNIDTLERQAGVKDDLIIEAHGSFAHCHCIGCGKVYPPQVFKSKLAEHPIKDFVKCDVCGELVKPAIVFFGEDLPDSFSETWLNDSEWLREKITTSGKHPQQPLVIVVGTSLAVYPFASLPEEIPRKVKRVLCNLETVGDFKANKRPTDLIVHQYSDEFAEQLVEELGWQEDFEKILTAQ

- binding result (Sas5_(YEATS)): binds
B1: H3_(18-37)K27bz (peptide)
peptide: KQLASKAARK(Bz)SAPSTGGVKY
notes: histone H3, residues K18 to K36; extra tyrosine residue (Y37) at the C-terminus designed for concentration determination by UV spectrometry; source: synthetic peptide

- binding result (Sth1BD): binds
B2: H3K14bz(TARKSTGGKbzAPRKQLASY) (peptide)
peptide: TARKSTGGK(Bz)APRKQLASY
notes: histone H3, residues 6-22; C-terminal tyrosine (Y23) that is not in H3 at this position; also called H3K14bz peptide of the Sth1BD crystal; source: synthetic peptide

- binding result (Hst2_(8-294)): binds
B3: H3_(5-14)K9bz (peptide)
peptide: QTARK(Bz)STGGK
notes: histone H3, residues 5-14; also called benzoylated H3 peptide; source: synthetic peptide

- binding result (Taf14_(YEATS)): binds
B4: H3_(5-13)K9bz (peptide)
peptide: Ac-QTARK(Bz)STGG
notes: histone H3, residues 5-13; Peptide crystallised with Taf14_(2-137); also called H3K9bz (Ac-QTARKbzSTGG); source: synthetic peptide
